Measurements as given in article PMC8528238 (Nature, 2021).

Molecular target: batCoV-SHC014 S-2P (Bat SARS-like coronavirus RsSHC014, UniProt U5WLK5, stabilised)
Assay: ELISA

B1: DH1047, cross-neutralizing RBD antibody (antibody, V domains shown)
VH: QVQLVQSGAEVKKPGASVQVSCQASANTFTNHYIHWVRQAPGQGLEWMGIIYPTGGNTIYAQGFQGRVTMTRDTSLNTIYLELSSLRSEDTAVYYCARDVRVDDSWSGYDLLSGGTYFDYWGQGTLVTVSS
VL: not shown
binding result: binds
